Laboratory results from patent US20260217833A1 (APTEVO RESEARCH AND DEVELOPMENT, published 2026).

Biological target: T1, Human PD-L1 full-length (human, UniProt Q9NZQ7 19-290)
T1 construct: also called PDL01021; CHOK1SV/huPDL1
Test: flow cytometry, CHOK1SV/human PD-L1 cells

T1 sequence (Q9NZQ7 19-290): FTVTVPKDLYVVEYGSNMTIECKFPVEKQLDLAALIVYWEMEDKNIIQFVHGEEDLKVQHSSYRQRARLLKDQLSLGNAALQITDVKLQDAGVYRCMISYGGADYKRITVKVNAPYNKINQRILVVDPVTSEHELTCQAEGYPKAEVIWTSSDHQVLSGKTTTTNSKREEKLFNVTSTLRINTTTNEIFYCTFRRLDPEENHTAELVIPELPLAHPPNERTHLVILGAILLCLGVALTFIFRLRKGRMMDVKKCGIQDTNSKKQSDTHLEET

Row | binding result | Binder
1 | binds | CD4001067 (bispecific antibody) PDL_5F9 x Fc-Knob: EVQLVESGGGLVKPGGSLRLSCAASGFTFSDYGMAWVRQAPGKGLEWVAFITSLAYIIYYADSVKGRFTISRDNAKNSLYLQMNSLRAEDTAVYYCARNYGSSPYYFDYWGQGTLVTVSSGGGGSGGGGSGGGGSGGGGSDIQMTQSPSSLSASVGDRVTITCRASQDINKFLSWYQQKPGKAPKLLIHYTSSLQPGVPSRFSGSGSGTDFTLTISSLQPEDFATYYCLQYDNLYTFGQGTKLEIKEPKSSDKTHTCPPCPAPPAAAPSVFLFPPKPKDTLMISRTPEVTCVVVDVSHEDPEVKFNWYVDGVEVHNAKTKPREEQYNSTYRVVSVLTVLHQDWLNGKEYKCAVSNKALPAPIEKTISKAKGQPREPQVYTLPPSRDELTKNQVSLWCLVKGFYPSDIAVEWESNGQPENNYKTTPPVLDSDGSFFLYSKLTVDKSRWQQGNVFSCSVMHEALHNHYTQKSLSLSPG CD40_2H7 x Fc-Hole: DIVMTQSHKFMSTSVGDRVSITCKASQDVNTAVAWYQQKPGQSPKLLIYSASYRYTGVPDRFTGSGSGTDFTFTISSVQAEDLAVYYCQQHYSTPWTFGGGTKLEIKGGGGSGGGGSGGGGSGGGGSQVQLQQSGAELAKPGASVKMSCKASGYAFTTYWMHWVKQRPGQGLEWIGYINPTTGYTDYNQKFKDKATLTADKSSSTAYMQLSSLTSEDSAVYYCARWGLPPFAYWGQGTLVTVSAEPKSSDKTHTCPPCPAPPAAAPSVFLFPPKPKDTLMISRTPEVTCVVVDVSHEDPEVKFNWYVDGVEVHNAKTKPREEQYNSTYRVVSVLTVLHQDWLNGKEYKCAVSNKALPAPIEKTISKAKGQPREPQVYTLPPSRDELTKNQVSLSCAVKGFYPSDIAVEWESNGQPENNYKTTPPVLDSDGSFFLVSKLTVDKSRWQQGNVFSCSVMHEALHNRFTQKSLSLSPG
2 | binds | CD4001069 (bispecific antibody) PDL_5F9 x Fc-Knob: EVQLVESGGGLVKPGGSLRLSCAASGFTFSDYGMAWVRQAPGKGLEWVAFITSLAYIIYYADSVKGRFTISRDNAKNSLYLQMNSLRAEDTAVYYCARNYGSSPYYFDYWGQGTLVTVSSGGGGSGGGGSGGGGSGGGGSDIQMTQSPSSLSASVGDRVTITCRASQDINKFLSWYQQKPGKAPKLLIHYTSSLQPGVPSRFSGSGSGTDFTLTISSLQPEDFATYYCLQYDNLYTFGQGTKLEIKEPKSSDKTHTCPPCPAPPAAAPSVFLFPPKPKDTLMISRTPEVTCVVVDVSHEDPEVKFNWYVDGVEVHNAKTKPREEQYNSTYRVVSVLTVLHQDWLNGKEYKCAVSNKALPAPIEKTISKAKGQPREPQVYTLPPSRDELTKNQVSLWCLVKGFYPSDIAVEWESNGQPENNYKTTPPVLDSDGSFFLYSKLTVDKSRWQQGNVFSCSVMHEALHNHYTQKSLSLSPG CD40_1D5 x Fc-Hole: DIVMSQSPSSLAVSVGEKVTMSCKSSQSLLFSVNQKNYLAWYQQKPGQSPKLLIYWASTRESGVPDRFTGSGSGTDFTLTIGSVKAEDLAVYYCQHYYSYPWTFGGGTKLEIKGGGGSGGGGSGGGGSGGGGSQVQLQQSGAELMNPGASVRISCKATGYTFSTSWIEWIKQRPGHGLEWIGEILPGSGSTNYNEKFKGKATFTADTSSNTAYMQLSSLTFEDSAVYYCARGDDGSYVRWYFDVWGAGTTVTVSSEPKSSDKTHTCPPCPAPPAAAPSVFLFPPKPKDTLMISRTPEVTCVVVDVSHEDPEVKFNWYVDGVEVHNAKTKPREEQYNSTYRVVSVLTVLHQDWLNGKEYKCAVSNKALPAPIEKTISKAKGQPREPQVYTLPPSRDELTKNQVSLSCAVKGFYPSDIAVEWESNGQPENNYKTTPPVLDSDGSFFLVSKLTVDKSRWQQGNVFSCSVMHEALHNRFTQKSLSLSPG
3 | binds | CD4001066 (PDL_5F9 x hFc x CD40_1D5) (bispecific antibody, ADAPTIR format, anti-PD-L1 scFv on N-terminus, anti-CD40 scFv on C-terminus; also called CD4001066 (1D5)) EVQLVESGGGLVKPGGSLRLSCAASGFTFSDYGMAWVRQAPGKGLEWVAFITSLAYIIYYADSVKGRFTISRDNAKNSLYLQMNSLRAEDTAVYYCARNYGSSPYYFDYWGQGTLVTVSSGGGGSGGGGSGGGGSGGGGSDIQMTQSPSSLSASVGDRVTITCRASQDINKFLSWYQQKPGKAPKLLIHYTSSLQPGVPSRFSGSGSGTDFTLTISSLQPEDFATYYCLQYDNLYTFGQGTKLEIKEPKSSDKTHTCPPCPAPPAAAPSVFLFPPKPKDTLMISRTPEVTCVVVDVSHEDPEVKFNWYVDGVEVHNAKTKPREEQYNSTYRVVSVLTVLHQDWLNGKEYKCAVSNKALPAPIEKTISKAKGQPREPQVYTLPPSRDELTKNQVSLTCLVKGFYPSDIAVEWESNGQPENNYKTTPPVLDSDGSFFLYSKLTVDKSRWQQGNVFSCSVMHEALHNHYTQKSLSLSPGGGGSPSDIVMSQSPSSLAVSVGEKVTMSCKSSQSLLFSVNQKNYLAWYQQKPGQSPKLLIYWASTRESGVPDRFTGSGSGTDFTLTIGSVKAEDLAVYYCQHYYSYPWTFGGGTKLEIKGGGGSGGGGSGGGGSGGGGSQVQLQQSGAELMNPGASVRISCKATGYTFSTSWIEWIKQRPGHGLEWIGEILPGSGSTNYNEKFKGKATFTADTSSNTAYMQLSSLTFEDSAVYYCARGDDGSYVRWYFDVWGAGTTVTVSS
4 | binds | CD4001064 (PDL_5F9 x hFc x CD40_2H7) (bispecific antibody, ADAPTIR format, anti-PD-L1 scFv on N-terminus, anti-CD40 scFv on C-terminus; also called CD4001064 (2H7)) EVQLVESGGGLVKPGGSLRLSCAASGFTFSDYGMAWVRQAPGKGLEWVAFITSLAYIIYYADSVKGRFTISRDNAKNSLYLQMNSLRAEDTAVYYCARNYGSSPYYFDYWGQGTLVTVSSGGGGSGGGGSGGGGSGGGGSDIQMTQSPSSLSASVGDRVTITCRASQDINKFLSWYQQKPGKAPKLLIHYTSSLQPGVPSRFSGSGSGTDFTLTISSLQPEDFATYYCLQYDNLYTFGQGTKLEIKEPKSSDKTHTCPPCPAPPAAAPSVFLFPPKPKDTLMISRTPEVTCVVVDVSHEDPEVKFNWYVDGVEVHNAKTKPREEQYNSTYRVVSVLTVLHQDWLNGKEYKCAVSNKALPAPIEKTISKAKGQPREPQVYTLPPSRDELTKNQVSLTCLVKGFYPSDIAVEWESNGQPENNYKTTPPVLDSDGSFFLYSKLTVDKSRWQQGNVFSCSVMHEALHNHYTQKSLSLSPGGGGSPSDIVMTQSHKFMSTSVGDRVSITCKASQDVNTAVAWYQQKPGQSPKLLIYSASYRYTGVPDRFTGSGSGTDFTFTISSVQAEDLAVYYCQQHYSTPWTFGGGTKLEIKGGGGSGGGGSGGGGSGGGGSQVQLQQSGAELAKPGASVKMSCKASGYAFTTYWMHWVKQRPGQGLEWIGYINPTTGYTDYNQKFKDKATLTADKSSSTAYMQLSSLTSEDSAVYYCARWGLPPFAYWGQGTLVTVSA
